Assay results from article PMC2749713.

Legend:
[1] = target: AB’C PP2A holoenzyme with GST-tagged A subunit (GST-A, B’ and C subunits) (human) (UniProt P30153); test: pull-down
[2] = target: Sgo1(51-96) peptide (human) (UniProt Q5FBB7); test: crystal structure

Chain of AB’C PP2A holoenzyme with GST-tagged A subunit (GST-A, B’ and C subunits) (human) (P30153 2-589, chain 1 of 3): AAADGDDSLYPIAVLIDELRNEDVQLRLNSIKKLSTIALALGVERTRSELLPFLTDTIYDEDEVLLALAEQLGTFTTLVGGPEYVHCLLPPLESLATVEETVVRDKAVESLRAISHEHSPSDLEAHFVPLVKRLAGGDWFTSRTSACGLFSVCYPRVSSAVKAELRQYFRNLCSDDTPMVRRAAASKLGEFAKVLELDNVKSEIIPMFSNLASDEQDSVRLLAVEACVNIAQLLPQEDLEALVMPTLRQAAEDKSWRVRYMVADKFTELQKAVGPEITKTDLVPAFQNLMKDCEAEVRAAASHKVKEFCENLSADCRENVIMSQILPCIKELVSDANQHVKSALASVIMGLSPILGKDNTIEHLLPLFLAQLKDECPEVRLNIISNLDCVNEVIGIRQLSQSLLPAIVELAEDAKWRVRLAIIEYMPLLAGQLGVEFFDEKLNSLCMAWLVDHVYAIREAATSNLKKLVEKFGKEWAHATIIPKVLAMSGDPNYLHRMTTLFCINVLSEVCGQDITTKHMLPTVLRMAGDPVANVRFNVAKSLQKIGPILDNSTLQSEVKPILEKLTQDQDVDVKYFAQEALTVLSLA
Chain of AB’C PP2A holoenzyme with GST-tagged A subunit (GST-A, B’ and C subunits) (human) (Q13362 whole entry, chain 2 of 3, further chain): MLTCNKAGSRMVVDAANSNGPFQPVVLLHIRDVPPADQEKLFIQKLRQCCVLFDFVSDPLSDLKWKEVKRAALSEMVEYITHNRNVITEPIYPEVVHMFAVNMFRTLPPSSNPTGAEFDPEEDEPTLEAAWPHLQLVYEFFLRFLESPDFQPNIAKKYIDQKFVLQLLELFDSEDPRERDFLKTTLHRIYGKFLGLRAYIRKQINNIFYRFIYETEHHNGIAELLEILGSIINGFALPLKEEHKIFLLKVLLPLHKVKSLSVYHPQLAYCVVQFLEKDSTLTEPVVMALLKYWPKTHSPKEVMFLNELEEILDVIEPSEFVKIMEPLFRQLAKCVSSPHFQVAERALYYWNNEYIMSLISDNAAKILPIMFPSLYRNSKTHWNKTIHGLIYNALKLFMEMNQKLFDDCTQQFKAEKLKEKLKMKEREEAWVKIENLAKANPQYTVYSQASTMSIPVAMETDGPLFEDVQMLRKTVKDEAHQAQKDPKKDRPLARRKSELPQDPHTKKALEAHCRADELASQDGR
Chain of AB’C PP2A holoenzyme with GST-tagged A subunit (GST-A, B’ and C subunits) (human) (P67775 whole entry, chain 3 of 3, further chain): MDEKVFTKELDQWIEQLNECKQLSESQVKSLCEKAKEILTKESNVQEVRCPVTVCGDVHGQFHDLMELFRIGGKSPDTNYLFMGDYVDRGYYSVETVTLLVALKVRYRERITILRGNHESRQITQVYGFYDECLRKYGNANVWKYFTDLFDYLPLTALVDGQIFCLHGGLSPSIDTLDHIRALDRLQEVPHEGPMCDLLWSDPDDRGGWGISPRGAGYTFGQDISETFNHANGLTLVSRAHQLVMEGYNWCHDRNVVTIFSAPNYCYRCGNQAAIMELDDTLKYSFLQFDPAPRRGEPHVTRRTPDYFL

Row | stoichiometry N (Sgo2 per PP2A) [1] | stoichiometry N [2] | Substance
1 | 2 | – | MBP-Sgo2(45-117) (from UniProt Q7TSY8 45-117) (domain or fragment)
2 | – | 2 | Sgo1(51-96) peptide (from UniProt Q5FBB7 51-96)
